Laboratory results taken from US12473372B2, “Inhibiting anti-ENPP1 antibodies” (The Regents of the University of California, priority 2020, dated 2025).

Assays:
ENPP1 [1] = target: T1, ENPP1 (Homo sapiens, UniProt P22413); assay: Luciferase based ATP assay of ENPP1 inhibition; format: biochemical; conditions: FIG. 17
T1 sequence (P22413 1-925): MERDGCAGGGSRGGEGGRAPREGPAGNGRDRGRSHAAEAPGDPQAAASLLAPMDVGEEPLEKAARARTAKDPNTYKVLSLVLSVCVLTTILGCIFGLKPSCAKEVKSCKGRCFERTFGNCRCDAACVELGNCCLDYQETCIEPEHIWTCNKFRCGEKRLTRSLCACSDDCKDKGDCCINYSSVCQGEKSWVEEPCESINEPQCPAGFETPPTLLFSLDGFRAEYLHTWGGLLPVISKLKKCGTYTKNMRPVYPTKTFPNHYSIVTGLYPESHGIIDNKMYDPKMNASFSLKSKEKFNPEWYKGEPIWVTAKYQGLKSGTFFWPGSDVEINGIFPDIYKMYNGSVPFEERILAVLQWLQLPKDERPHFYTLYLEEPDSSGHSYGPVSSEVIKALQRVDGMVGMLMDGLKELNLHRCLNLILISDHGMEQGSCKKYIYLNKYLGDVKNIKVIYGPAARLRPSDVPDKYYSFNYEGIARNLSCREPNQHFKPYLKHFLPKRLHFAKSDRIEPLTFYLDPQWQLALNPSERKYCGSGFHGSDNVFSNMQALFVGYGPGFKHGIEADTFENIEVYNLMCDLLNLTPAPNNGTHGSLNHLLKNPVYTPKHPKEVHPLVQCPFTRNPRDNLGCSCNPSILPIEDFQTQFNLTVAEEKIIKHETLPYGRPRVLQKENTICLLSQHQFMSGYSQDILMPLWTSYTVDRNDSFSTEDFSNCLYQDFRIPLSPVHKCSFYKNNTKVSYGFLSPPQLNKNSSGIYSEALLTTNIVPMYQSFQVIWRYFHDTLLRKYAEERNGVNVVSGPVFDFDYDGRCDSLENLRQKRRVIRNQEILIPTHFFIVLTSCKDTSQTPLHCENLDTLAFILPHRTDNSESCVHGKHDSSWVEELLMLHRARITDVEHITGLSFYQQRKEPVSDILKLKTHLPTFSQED
Method: FIG. 17 is an exemplary graph showing the effect of monoclonal Ab 12-J-4 in inhibiting ENPP1. In a luciferase based assay, ATP was incubated with luciferase in the presence or absence of ENPP1+/−the mAb or IgG control. In the absence of ENPP1, high luminescence signal is obtained.

[2] = test system: ENPP1 mediated cell death of cardiac fibroblasts; assay: Co-culture of cardiac fibroblasts and cardiomyocytes with recombinant ENPP1 and ATP, cell death; format: cell-based; conditions: for cell death and detachment of cardiac fibroblasts: images after 48 hours, versus IgG control, FIG. 18A
Method: FIG. 18A are exemplary micrographs showing ENPP1 mAb inhibits ENPP1 mediated cell death. Cardiac fibroblasts (green) were co-cultured with cardiomyocytes (red) followed by the addition of vehicle (panel A) or recombinant ENPP1 and ATP and IgG (panel B) or recombinant ENPP1 and ATP and 12-J-4 ENPP1mAb (panel C). Images were taken after 48 hours and show cell death and detachment of cardiac fibroblasts in the IgG control well (panel B).
FIG. 18B is an exemplary graph showing results of flow cytometry measuring cell death (PI+) from the assay performed in FIG. 18A.
Next, functional data was collected for the ENPP1 mAb using an in vitro functional assay. As shown in the previous examples, ENPP1 expression induced cardiomyocytes to release pro-inflammatory and pro-apoptotic molecules that induce cell death in a host of cell types in the injury region. To test the ENPP1 mAb, an in vitro functional assay was performed in which cardiac fibroblasts were incubated with cardiomyocytes followed by the addition of a vehicle, recombinant ENPP1 and ATP and IgG, or recombinant ENPP1 and ATP and 12-J-4 ENPP1mAb.

murine ENPP1 = target: T2, murine ENPP1 (Mus musculus, UniProt P06802); assay: Cross reactivity of the antibody with murine ENPP1; format: binding; conditions: antibody raised against human recombinant protein
T2 sequence (P06802 1-906): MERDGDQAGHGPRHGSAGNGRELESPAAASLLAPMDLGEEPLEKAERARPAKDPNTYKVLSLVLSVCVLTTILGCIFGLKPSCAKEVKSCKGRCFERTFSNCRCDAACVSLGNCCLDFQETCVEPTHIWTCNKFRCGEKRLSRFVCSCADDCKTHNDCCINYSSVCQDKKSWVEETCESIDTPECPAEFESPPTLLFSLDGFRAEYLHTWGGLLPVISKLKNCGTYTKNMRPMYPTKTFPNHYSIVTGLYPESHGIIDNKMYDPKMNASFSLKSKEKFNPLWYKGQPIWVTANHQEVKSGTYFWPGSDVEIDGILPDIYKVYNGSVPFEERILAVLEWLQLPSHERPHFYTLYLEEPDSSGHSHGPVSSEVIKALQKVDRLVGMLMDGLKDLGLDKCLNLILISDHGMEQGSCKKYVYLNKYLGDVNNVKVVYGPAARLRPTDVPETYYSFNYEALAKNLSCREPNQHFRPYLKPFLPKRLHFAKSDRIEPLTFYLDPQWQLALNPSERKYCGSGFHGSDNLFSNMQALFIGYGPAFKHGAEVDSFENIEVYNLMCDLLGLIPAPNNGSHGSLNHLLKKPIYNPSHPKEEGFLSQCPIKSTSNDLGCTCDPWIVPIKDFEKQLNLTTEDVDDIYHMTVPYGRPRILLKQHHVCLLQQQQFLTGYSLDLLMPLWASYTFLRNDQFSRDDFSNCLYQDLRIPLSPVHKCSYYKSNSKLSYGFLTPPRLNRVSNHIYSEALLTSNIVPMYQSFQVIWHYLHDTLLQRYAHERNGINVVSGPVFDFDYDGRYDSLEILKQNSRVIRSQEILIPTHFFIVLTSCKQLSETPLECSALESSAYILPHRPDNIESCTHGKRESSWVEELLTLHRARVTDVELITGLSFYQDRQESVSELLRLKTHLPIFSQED
Source text: The antibody was generated in collaboration with Lake Pharma using standard techniques of monoclonal antibody (mAb) generation, including immunization, collection and testing of hybridoma supernatants, cloning of hybridomas and further confirmation by multiple affinity assays followed by selection and production of the ENPP1mAb in a recombinant manner. […] The selected hybridoma has been sequenced and the recombinant monoclonal is produced on a CHO cell line with characterization by electropherogram and mass spectrometry. The molecular weight of the heavy chain is approximately 48 kD and the light chain 24 kD.

ENPP1 [3] = target: T1, ENPP1; assay: Flow cytometry binding of ENPP1 mAb to HEK cells over-expressing full length ENPP1; set-up: HEK cells over-expressing full length ENPP1 were incubated with varying concentrations of ENPP1 mAb; expressed in transfected cells; host or cells: HEK cells; conditions: compared among several clones obtained; FIG. 15
Method: FIG. 15 is an exemplary affinity binding curve of ENPP1 monoclonal antibody (mAb) targeting human ENPP1. HEK cells over-expressing full length ENPP1 were incubated with varying concentrations of ENPP1 mAb followed by flow cytometry to determine mean fluorescence intensity as a readout for binding. […] IgG at an identical concentration is used as a control.

luminescence signal when ENPP1 is added (ENPP1 [1]; ATP incubated with luciferase and ENPP1, compared to IgG): significantly higher | inhibition of ENPP1 (ENPP1 [1]; at nanomolar concentrations): potently inhibits | cross reactivity with murine ENPP1 (murine ENPP1): significant cross reactivity | binding and inhibitory effects on ENPP1 activity (ENPP1 [3]): most potent
B1: 12-J-4: Anti-ENPP1 monoclonal antibody, IgG1kappa, made recombinantly in CHO cells; CDRs SEQ ID NO: 1-6, VH SEQ ID NO: 7, VL SEQ ID NO: 9 (antibody, V domains shown)
VH: EVMLVESGGGLVKPGGSLKLSCVASGFTFSSYTMSWVRQTPEKRLEWVATISGGGGNTYYPDSVKGRFTISRDNAKNTLYLQMSSLRSEDTALYYCARRHYGSSPYAMDYWGQGTSVTVSS
VL: DIQMTQTTSSLSASLGDRVTISCRASQDISNYLNWYQQKPDGTVKLLIYHKTRLHSGVPSRFSGSGSGTDYSLTISNLEQEDIATYFCQQGNMLPWTFGGGTKLEIK
modifications: IgG1 kappa constant regions
PI+ cells (cell death) by flow cytometry ([2]; FIG. 18B): significant reduction | cell death and detachment of cardiac fibroblasts [2]: significantly abrogated cell death | cell death and detachment of cardiac fibroblasts ([2]; listed as ENPP1mAb): significantly diminished
